Laboratory results published in patent US20140356376.

Columns and labels:
[1] = tested on: thio-S4497 HC v1-MP-LAFG-PABC-(piperazinoBOR) AAC-193
[2] = tested on: thioFAB 4497 MP-LAFAA-QSY7
[3] = tested on: thioFAB 4497 MP-LAFGA-QSY7

staphopain B
100%: Percent cleavage pH 5 [1] | Percent cleavage pH 7.2 [1] | Percent cleavage pH 7.2 [2] | Percent cleavage pH 7.2 [3]
